{
  "source": "patent US20230071765A1",
  "about": "“COMPOSITIONS HAVING THIOREDOXIN ACTIVITY AND RELATED METHODS” (ORPRO THERAPEUTICS, INC., priority 2020, published 2023)",
  "key": {"[1]": {"tested_on": "primary HBE cells from CF donors homozygous for F508del", "assay": "μOCT of MCT rate and CBF in CF primary HBE cells", "assay_type": "cell-based, human", "text": "(§1) Primary human bronchial epithelial (HBE) cells were derived from lung explants from healthy failed donors and CF patients homozygous for F508del CFTR. […]\n(§2) One-micron resolution spectral domain μOCT was used to obtain measurements of mucociliary transport (MCT) rate and ciliary beat frequency (CBF) in HBE monolayers and of MCT rate of sputum ex vivo. This first-in-kind, high-speed (40 frames per second, 512 lines per frame) microscopic reflectance imaging modality enables simultaneous anatomic imaging in cell cultures and intact tissues that readily distinguishes the properties of CF compared to normal epithelia (Liu L, Chu K K, Houser G H, Diephuis B J, Li Y, Wilsterman E J, Shastry S, Dierksen G, Birket S E, Mazur M, et al., 2013, Method for quantitative study of airway functional microanatomy using micro-optical coherence tomography, PLoS One 8(1):e54473; Tuggle K L, Birket S E, Cui X, Hong J, Warren J, Reid L, Chambers A, Ji D, Gamber K, Chu K K, et al., 2014, Characterization of defects in ion transport and tissue development in Cystic Fibrosis Transmembrane Conductance Regulator (CFTR)-knockout rats. […] Images were captured, and MCT rate and CBF calculated, as described in the preceding references."}, "[2]": {"tested_on": "4% HBE mucus from CF donors", "assay": "rheology of 4% solids CF HBE mucus (G′, G″)", "assay_type": "biochemical, human", "settings": "1 hr at 37° C.", "text": "Mucus Preparation: Aseptic mucus was harvested from over 100 individual HBE cultures from 20 different CF donors and prepared to four weight-percent (4%) solids, a concentration that typifies chronic obstructive pulmonary disease (COPD) and mild CF (Hill, D. B. et al., 2014, A biophysical basis for mucus solids concentration as a candidate biomarker for airways disease, PloS one 9, e87681; Anderson, W. H. et al., 2015, The relationship of mucus concentration (hydration) to mucus osmotic pressure and transport in chronic bronchitis., Am J Resp Crit Care Med 192: 182-90). Rheology: HBE cell culture mucus was treated with DTT (1 mM) and several concentrations of ORP100S (0.01, 0.1, and 1.0 mM) for 1 hr at 37° C. following previously established methods (Hill, D. B., and Button, B., 2012, Establishment of respiratory air-liquid interface cultures and their use in studying mucin production, secretion, and function. In Mucins: Methods and Protocols, D. J. Thornton, ed., pp. 245-58; Youngren-Ortiz, S. et al., 2017, Development of optimized inhalable Gemcitabine-loaded gelatin nanocarriers for lung cancer, J Aerosol Med Pulm Drug Delivery 30:299-321; Seagrave, J., et al., 2012, Effects of guaifenesin, N-acetylcysteine, and ambroxol on MUC5AC and mucociliary transport in primary differentiated human tracheal-bronchial cells, Respir Res 13: 98). Concentration and time course assays were performed using a TA Instruments DHR3 rheometer to assess the bulk, macroscopic biophysical effects of test article and controls on HBE mucus properties. Briefly, the linear regime of a 1 Hz amplitude (stress) sweep was identified for each treatment condition. […] Creep recovery experiments were performed in which a known stress (between 0.05 and ˜100 Pa) was applied to treated or control mucus for 10 seconds, and the rheological recovery of the fluid was recorded for an additional 50 seconds. […] From the measured parameters the viscosity and elasticity of the fluid were determined as a function of applied stress. Frequency sweeps were performed at both constant stress and strains and used to determine the baseline physical properties of mucus and its elastic and viscous components (G′ and G″, respectively). Mucin molecular weight determination: Molecular weight reduction following test article treatment was determined using a combination of gel-permeation chromatography with multi-angle laser light scattering on a Wyatt Heleos MALLS system. MALLS is a rapid and accurate means of determining molecular size and mass of high MW biomolecules in a non-destructive manner without requiring the use of relative standards. Briefly, 4% HBE treated samples were diluted 100-fold in 0.9% NaCl with 10 mM EDTA and 0.01% sodium azide. 0.2 mL of diluted sample was eluted through a Sepharose CL2B column to separate high MW mucins from other mucus proteins, and the mucin fraction was introduced into the MALLS system. Mucin MW was determined by fitting a Berry model to light scattering from 11 different angles using Wyatt Astra software.\nFIGS. 5, A and B (top): Reduction in Elastic (G′) and Viscous (G″) moduli of 4% solids dry weight mucus reduced with DTT (1 mM) and ORP100S (0.01, 0.1, and 1.0 mM concentrations) for 1 hr at 37° C. […] All data were collected by examining frequency sweeps of mucus performed in the linear regime and analyzed at 1 rad/s on a TA DHR3 rheometer."}, "[3]": {"tested_on": "primary HBE cells from healthy non-CF donors", "assay": "μOCT of MCT rate and CBF in non-CF primary HBE cells", "assay_type": "cell-based, human", "text": "as §1, §2"}, "[4]": {"settings": "material purified with removal of the red fraction, 68.4 mg/ml"}},
  "data": [
    {"molecule": "ORP100S: thioredoxin with monothiol active site, Cys35 and non-active Cys 62, 69 and 73 substituted with serine (SEQ ID NO:29) (protein, synthetic peptide motif) MVKQIESKTAFQEALDAAGDKLVVVDFSATWCGPSKMIKPFFHSLSEKYSNVIFLEVDVDDSQDVASESEVKSMPTFQFFKKGQKVGEFSGANKEKLEATINELV", "values": [
      {"measurement": "CBF", "setting": "[1]; 3 hrs post treatment", "value": "no meaningful differences"},
      {"measurement": "MCT rate", "setting": "[1]; 3 hrs post-treatment, ORP100S 1-3 mM, DTT 1.6 mM, PBS 7.30±2.9, mean±SE", "value": "54.73±15.3", "unit": "mm/min"},
      {"measurement": "reduction in elastic modulus G′", "setting": "[2]; 10 μM", "value": "significant reduction in G′ was not apparent"},
      {"measurement": "reduction in viscous modulus G″", "setting": "[2]; 10 μM", "value": "~2", "unit": "fold"},
      {"measurement": "reduction in viscous modulus G″", "setting": "[2]; 100 μM", "value": "reduced by a similar amount as observed with 10 μM"},
      {"measurement": "elastic modulus G′", "setting": "[2]; 100 μM, baseline value 0.28 Pa", "value": 0.19, "unit": "Pa"},
      {"measurement": "reduction in G′, factor", "setting": "[2]; 1 mM", "value": "~3"},
      {"measurement": "reduction in G″, factor", "setting": "[2]; 1 mM", "value": "~3"},
      {"measurement": "CBF", "setting": "[3]; 3 hrs post treatment", "value": "no meaningful differences"},
      {"measurement": "MCT rate", "setting": "[3]; 3 hrs post-treatment, ORP100S 1-3 mM, DTT 1.6 mM, PBS 0.05±0.007, mean±SE", "value": "2.18±0.3", "unit": "mm/min"},
      {"measurement": "Endotoxin level (Endosafe PTS)", "setting": "[4]", "value": 0.002, "unit": "EU/mg"}
    ]}
  ]
}
